Data: IntAct's records for PubMed 31515488

B1: Nuclear autoantigen Sp-100 (Homo sapiens), P23497 (parent)
chain: MAGGGGDLSTRRLNECISPVANEMNHLPAHSHDLQRMFTEDQGVDDRLLYDIVFKHFKRNKVEISNAIKKTFPFLEGLRDRDLITNKMFEDSQDSCRNLVPVQRVVYNVLSELEKTFNLPVLEALFSDVNMQEYPDLIHIYKGFENVIHDKLPLQESEEEEREERSGLQLSLEQGTGENSFRSLTWPPSGSPSHAGTTPPENGLSEHPCETEQINAKRKDTTSDKDDSLGSQQTNEQCAQKAEPTESCEQIAVQVNNGDAGREMPCPLPCDEESPEAELHNHGIQINSCSVRLVDIKKEKPFSNSKVECQAQARTHHNQASDIIVISSEDSEGSTDVDEPLEVFISAPRSEPVINNDNPLESNDEKEGQEATCSRPQIVPEPMDFRKLSTFRESFKKRVIGQDHDFSESSEEEAPAEASSGALRSKHGEKAPMTSRSTSTWRIPSRKRRFSSSDFSDLSNGEELQETCSSSLRRGSGSQPQEPENKKCSCVMCFPKGVPRSQEARTESSQASDMMDTMDVENNSTLEKHSGKRRKKRRHRSKVNGLQRGRKKDRPRKHLTLNNKVQKKRWQQRGRKANTRPLKRRRKRGPRIPKDENINFKQSELPVTCGEVKGTLYKERFKQGTSKKCIQSEDKKWFTPREFEIEGDRGASKNWKLSIRCGGYTLKVLMENKFLPEPPSTRKKRILESHNNTLVDPCEEHKKKNPDASVKFSEFLKKCSETWKTIFAKEKGKFEDMAKADKAHYEREMKTYIPPKGEKKKKFKDPNAPKRPPLAFFLFCSEYRPKIKGEHPGLSIDDVVKKLAGMWNNTAAADKQFYEKKAAKLKEKYKKDIAAYRAKGKPNSAKKRVVKAEKSKKKKEEEEDEEDEQEEENEEDDDK
partner: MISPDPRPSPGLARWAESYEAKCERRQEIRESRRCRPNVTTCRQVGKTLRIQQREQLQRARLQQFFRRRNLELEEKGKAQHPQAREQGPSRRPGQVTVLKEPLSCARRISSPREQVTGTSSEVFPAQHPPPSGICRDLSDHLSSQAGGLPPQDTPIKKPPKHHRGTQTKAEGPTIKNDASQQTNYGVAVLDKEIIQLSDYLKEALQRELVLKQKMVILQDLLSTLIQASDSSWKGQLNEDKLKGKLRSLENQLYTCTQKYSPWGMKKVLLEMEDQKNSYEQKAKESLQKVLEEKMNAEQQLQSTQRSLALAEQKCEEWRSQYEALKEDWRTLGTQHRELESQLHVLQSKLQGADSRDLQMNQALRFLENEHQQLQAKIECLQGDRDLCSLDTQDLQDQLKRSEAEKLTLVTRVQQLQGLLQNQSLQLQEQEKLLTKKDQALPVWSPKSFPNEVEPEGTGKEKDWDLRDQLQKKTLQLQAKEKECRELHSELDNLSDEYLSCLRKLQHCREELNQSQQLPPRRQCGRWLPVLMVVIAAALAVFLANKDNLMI
B2: Zinc finger protein Aiolos (Homo sapiens), Q9UKT9 (parent)
chain: MEDIQTNAELKSTQEQSVPAESAAVLNDYSLTKSHEMENVDSGEGPANEDEDIGDDSMKVKDEYSERDENVLKSEPMGNAEEPEIPYSYSREYNEYENIKLERHVVSFDSSRPTSGKMNCDVCGLSCISFNVLMVHKRSHTGERPFQCNQCGASFTQKGNLLRHIKLHTGEKPFKCHLCNYACQRRDALTGHLRTHSVEKPYKCEFCGRSYKQRSSLEEHKERCRTFLQSTDPGDTASAEARHIKAEMGSERALVLDRLASNVAKRKSSMPQKFIGEKRHCFDVNYNSSYMYEKESELIQTRMMDQAINNAISYLGAEALRPLVQTPPAPTSEMVPVISSMYPIALTRAEMSNGAPQELEKKSIHLPEKSVPSERGLSPNNSGHDSTDTDSNHEERQNHIYQQNHMVLSRARNGMPLLKEVPRSYELLKPPPICPRDSVKVINKEGEVMDVYRCDHCRVLFLDYVMFTIHMGCHGFRDPFECNMCGYRSHDRYEFSSHIARGEHRALLK
partner: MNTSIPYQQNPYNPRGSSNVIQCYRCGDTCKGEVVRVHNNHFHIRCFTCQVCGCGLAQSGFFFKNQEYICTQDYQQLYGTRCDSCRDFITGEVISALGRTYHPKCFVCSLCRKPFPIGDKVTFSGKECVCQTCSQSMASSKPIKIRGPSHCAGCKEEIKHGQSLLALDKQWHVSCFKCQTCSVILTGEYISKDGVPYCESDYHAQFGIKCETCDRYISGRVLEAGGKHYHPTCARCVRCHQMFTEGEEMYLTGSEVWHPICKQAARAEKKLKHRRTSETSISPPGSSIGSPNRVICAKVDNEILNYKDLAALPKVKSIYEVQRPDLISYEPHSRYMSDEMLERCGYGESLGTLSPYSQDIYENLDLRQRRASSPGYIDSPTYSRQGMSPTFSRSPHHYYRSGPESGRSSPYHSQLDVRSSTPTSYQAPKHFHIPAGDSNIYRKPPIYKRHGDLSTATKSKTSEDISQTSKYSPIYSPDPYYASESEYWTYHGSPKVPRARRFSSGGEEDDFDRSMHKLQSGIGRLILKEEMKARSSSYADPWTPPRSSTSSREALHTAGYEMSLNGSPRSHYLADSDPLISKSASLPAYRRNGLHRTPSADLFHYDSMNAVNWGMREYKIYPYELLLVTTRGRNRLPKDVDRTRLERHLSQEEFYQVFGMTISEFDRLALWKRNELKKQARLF
B3: Cyclic AMP-responsive element-binding protein 3-like protein 1 (Homo sapiens), Q96BA8 (parent)
chain: MDAVLEPFPADRLFPGSSFLDLGDLNESDFLNNAHFPEHLDHFTENMEDFSNDLFSSFFDDPVLDEKSPLLDMELDSPTPGIQAEHSYSLSGDSAPQSPLVPIKMEDTTQDAEHGAWALGHKLCSIMVKQEQSPELPVDPLAAPSAMAAAAAMATTPLLGLSPLSRLPIPHQAPGEMTQLPVIKAEPLEVNQFLKVTPEDLVQMPPTPPSSHGSDSDGSQSPRSLPPSSPVRPMARSSTAISTSPLLTAPHKLQGTSGPLLLTEEEKRTLIAEGYPIPTKLPLTKAEEKALKRVRRKIKNKISAQESRRKKKEYVECLEKKVETFTSENNELWKKVETLENANRTLLQQLQKLQTLVTNKISRPYKMAATQTGTCLMVAALCFVLVLGSLVPCLPEFSSGSQTVKEDPLAADGVYTASQMPSRSLLFYDDGAGLWEDGRSTLLPMEPPDGWEINPGGPAEQRPRDHLQHDHLDSTHETTKYLSEAWPKDGGNGTSPDFSHSKEWFHDRDLGPNTTIKLS

Variants of: B1
Conditions: with TRAF3IP3, Q9Y228

effect of a mutation on the interaction | Variant
with no effect | M433V

Variants of: B2
Conditions: with ablm3_human ABLIM3, O94929

effect of a mutation on the interaction | Variant
with no effect | N119D
with no effect | A24V

Variants of: B3
Conditions: with gpr25_human GPR25, O00155
Sequence of gpr25_human GPR25, O00155 (O00155 whole entry): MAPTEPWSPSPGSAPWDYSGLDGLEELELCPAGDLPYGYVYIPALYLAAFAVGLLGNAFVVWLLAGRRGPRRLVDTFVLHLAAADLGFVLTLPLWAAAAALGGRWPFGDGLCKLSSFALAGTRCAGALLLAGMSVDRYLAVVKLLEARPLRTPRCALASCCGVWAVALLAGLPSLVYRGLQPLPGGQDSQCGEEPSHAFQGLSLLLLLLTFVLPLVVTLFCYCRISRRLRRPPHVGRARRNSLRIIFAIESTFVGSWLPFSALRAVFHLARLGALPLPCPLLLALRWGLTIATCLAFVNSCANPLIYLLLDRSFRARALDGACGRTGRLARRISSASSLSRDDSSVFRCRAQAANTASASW

effect of a mutation on the interaction | Variant
with no effect | MDAVLEPFPADRLFPGSSFLDLGDLNESDFLNNAHFPEHLDHFTENMEDFSNDLFSSFFDDPVLDEKSPLLDMELDSPTPGIQAEHSYSLSGDSAPQSPLVPIKMEDTTQDAEHGAWALGHKLCSIMVKQEQSPELPVDPLAAPSAMAAAAAMATTPLLGLSPLSRLPIPHQAPGEMTQLPVIKAEPLEVNQFLKVTPEDLVQMPPTPPSSHGSDSDGSQSPRSLPPSSPVRPMARSSTAISTSPLLTAPHKLQGTSGPLLLTEEEKRTLIAEGYPIPTKLPLTKAEEKALKRVRRKIKNKISAQESRRKKKEYVECLEKKVETFTSENNELWKKVETLENANRTLLQQLQKLQTLVTNKISRPYKMAATQTGTCLMVAALCFVLVLGSLVPCLPEFSSGSQTVKEDPLAADGVYTASQMPSRSLLFYDDGAGLWEDGRSTLLPMEPPDGWEINPGGPAEQRPRDHLQHDHLDSTHETTKYLSEAWPKDGGNGTSPDFSHSKEWFHDRDLGPNTTSKLS [I516S]

Variants of: B3
Conditions: with tm147_human TMEM147, Q9BVK8
Sequence of tm147_human TMEM147, Q9BVK8 (Q9BVK8 whole entry): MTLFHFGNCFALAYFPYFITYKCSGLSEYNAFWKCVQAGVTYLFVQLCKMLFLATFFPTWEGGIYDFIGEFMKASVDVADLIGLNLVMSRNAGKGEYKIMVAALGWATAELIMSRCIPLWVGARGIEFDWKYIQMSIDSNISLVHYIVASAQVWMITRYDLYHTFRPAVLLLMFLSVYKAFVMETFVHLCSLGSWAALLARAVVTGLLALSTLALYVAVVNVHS

effect of a mutation on the interaction | Variant
with no effect | MDAVLEPFPADRLFPGSSFLDLGDLNESDFLNNAHFPEHLDHFTENMEDFSNDLFSSFFDDPVLDEKSPLLDMELDSPTPGIQAEHSYSLSGDSAPQSPLVPIKMEDTTQDAEHGAWALGHKLCSIMVKQEQSPELPVDPLAAPSAMAAAAAMATTPLLGLSPLSRLPIPHQAPGEMTQLPVIKAEPLEVNQFLKVTPEDLVQMPPTPPSSHGSDSDGSQSPRSLPPSSPVRPMARSSTAISTSPLLTAPHKLQGTSGPLLLTEEEKRTLIAEGYPIPTKLPLTKAEEKALKRVRRKIKNKISAQESRRKKKEYVECLEKKVETFTSENNELWKKVETLENANRTLLQQLQKLQTLVTNKISRPYKMAATQTGTCLMVAALCFVLVLGSLVPCLPEFSSGSQTVKEDPLAADGVYTASQMPSRSLLFYDDGAGLWEDGRSTLLPMEPPDGWEINPGGPAEQRPRDHLQHDHLDSTHETTKYLSEAWPKDGGNGTSPDFSHSKEWFHDRDLGPNTTSKLS [I516S]
